Legend:
Experiment in all cases: cell-based or functional assay
[1] = biological target: human Sirt3 (human) (UniProt Q9NTG7)
[2] = biological target: human Sirt5 (human) (UniProt Q9NXA8)
[3] = biological target: human Sirt2 (human) (UniProt Q8IXJ6)
[4] = biological target: human Sirt1 (human) (UniProt Q96EB6)
human Sirt1 (human), sequence (Q96EB6 whole entry): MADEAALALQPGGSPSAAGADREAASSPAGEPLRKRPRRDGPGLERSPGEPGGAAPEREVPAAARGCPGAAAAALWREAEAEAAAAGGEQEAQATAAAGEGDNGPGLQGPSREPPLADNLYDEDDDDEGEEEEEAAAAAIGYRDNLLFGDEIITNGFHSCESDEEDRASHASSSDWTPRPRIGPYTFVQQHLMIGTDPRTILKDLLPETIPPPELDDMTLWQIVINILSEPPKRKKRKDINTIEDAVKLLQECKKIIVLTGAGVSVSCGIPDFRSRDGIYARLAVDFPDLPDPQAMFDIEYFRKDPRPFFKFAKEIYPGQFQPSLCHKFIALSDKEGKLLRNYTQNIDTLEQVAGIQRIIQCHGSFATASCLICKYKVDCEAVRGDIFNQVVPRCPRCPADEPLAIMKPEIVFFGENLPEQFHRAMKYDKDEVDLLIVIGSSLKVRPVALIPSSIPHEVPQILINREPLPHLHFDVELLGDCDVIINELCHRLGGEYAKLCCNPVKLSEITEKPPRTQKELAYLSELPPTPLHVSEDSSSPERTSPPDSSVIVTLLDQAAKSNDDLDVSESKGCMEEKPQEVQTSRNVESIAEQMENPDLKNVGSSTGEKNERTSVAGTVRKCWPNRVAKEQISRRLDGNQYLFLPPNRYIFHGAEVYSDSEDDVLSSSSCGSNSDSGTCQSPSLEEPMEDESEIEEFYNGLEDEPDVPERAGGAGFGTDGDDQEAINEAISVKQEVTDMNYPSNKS

human Sirt5 (human), sequence (Q9NXA8 whole entry): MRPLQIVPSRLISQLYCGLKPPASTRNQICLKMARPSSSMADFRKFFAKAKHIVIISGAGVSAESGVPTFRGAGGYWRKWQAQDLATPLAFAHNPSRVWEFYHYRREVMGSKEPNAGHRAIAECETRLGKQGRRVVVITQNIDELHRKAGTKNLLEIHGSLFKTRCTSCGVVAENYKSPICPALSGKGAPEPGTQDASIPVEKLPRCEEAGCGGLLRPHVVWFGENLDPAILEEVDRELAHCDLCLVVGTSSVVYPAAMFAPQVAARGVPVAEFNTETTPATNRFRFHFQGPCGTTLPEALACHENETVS
human Sirt3 (human), sequence (Q9NTG7 102-399 limits assumed): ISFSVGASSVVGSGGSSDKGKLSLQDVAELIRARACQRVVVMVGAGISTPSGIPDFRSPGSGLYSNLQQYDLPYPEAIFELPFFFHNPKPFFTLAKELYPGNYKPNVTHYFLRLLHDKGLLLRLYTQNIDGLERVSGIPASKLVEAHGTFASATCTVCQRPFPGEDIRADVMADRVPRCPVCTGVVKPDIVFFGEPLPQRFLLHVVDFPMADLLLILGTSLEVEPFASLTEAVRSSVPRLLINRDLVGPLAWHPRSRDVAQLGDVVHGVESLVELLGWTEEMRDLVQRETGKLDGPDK
human Sirt2 (human), sequence (Q8IXJ6 whole entry): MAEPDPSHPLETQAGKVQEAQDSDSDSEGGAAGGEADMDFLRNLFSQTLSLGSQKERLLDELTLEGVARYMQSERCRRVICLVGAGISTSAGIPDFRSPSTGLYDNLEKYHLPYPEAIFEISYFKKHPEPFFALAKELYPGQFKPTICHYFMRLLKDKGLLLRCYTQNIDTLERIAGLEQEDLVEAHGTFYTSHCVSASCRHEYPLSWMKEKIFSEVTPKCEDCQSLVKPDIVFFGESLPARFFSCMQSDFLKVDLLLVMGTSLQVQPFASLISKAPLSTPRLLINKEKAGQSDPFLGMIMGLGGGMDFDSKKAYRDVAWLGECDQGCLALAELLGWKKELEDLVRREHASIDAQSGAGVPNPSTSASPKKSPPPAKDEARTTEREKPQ

H3K9 thioacetyl peptide (H3K9 TAc) gave an IC50 (µM), inhibition of sirtuin deacylase activity [1] of 2 µM, an IC50 (µM), inhibition of sirtuin deacylase activity [2] of over 100 µM and an IC50 (µM), inhibition of sirtuin deacylase activity [3] of 2 µM. It also gave an IC50 (µM), inhibition of sirtuin deacylase activity [4] of 1 µM.
